# Source: patent US20080220049A1
# Biological target: mouse vascular endothelial growth factor receptor-2 Fc chimera (Flk-1-Fc) (mouse) (UniProt P35918)
# Assay: radioactive equilibrium binding, 1 nM Flk-1-Fc
# mouse vascular endothelial growth factor receptor-2 Fc chimera (Flk-1-Fc) (mouse), sequence (P35918 20-762, change not shown): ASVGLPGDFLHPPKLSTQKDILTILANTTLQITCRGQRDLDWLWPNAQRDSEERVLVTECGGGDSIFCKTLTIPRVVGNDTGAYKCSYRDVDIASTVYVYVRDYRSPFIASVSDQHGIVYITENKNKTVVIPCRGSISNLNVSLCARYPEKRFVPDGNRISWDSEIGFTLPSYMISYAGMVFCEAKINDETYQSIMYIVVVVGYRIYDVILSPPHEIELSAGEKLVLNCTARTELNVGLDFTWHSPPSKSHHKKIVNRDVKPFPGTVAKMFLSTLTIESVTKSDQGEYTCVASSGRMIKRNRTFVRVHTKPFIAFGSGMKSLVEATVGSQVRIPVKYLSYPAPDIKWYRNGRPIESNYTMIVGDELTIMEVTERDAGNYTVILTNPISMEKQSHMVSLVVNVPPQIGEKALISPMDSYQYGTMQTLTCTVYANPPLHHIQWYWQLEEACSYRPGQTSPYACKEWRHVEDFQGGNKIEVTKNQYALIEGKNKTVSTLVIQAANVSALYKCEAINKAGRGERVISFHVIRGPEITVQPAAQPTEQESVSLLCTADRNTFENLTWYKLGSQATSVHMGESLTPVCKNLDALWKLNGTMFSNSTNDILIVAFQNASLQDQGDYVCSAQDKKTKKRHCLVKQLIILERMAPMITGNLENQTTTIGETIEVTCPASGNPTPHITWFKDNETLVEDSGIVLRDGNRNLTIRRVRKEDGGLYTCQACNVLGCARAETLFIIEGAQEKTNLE
row,"Binding to 1 nM Flk-1, % [%]",Binder
1,2,A4 (designed binder) EVVAATPTSLLISWRHPHFPTRYYRITYGETGGNSPVQEFTVPLQPPTATISGLKPGVDYTITGYAVTDGYNDRLLFIPISINYRT
2,1,E13 (designed binder) EVVAATPTSLLISWRHPHFPTRYYRITYGETGGNSPVQEFTVPLQPPTATISGLKPGVDYTITGYAVTLEQNGRELMTPISINYRT
3,1,EGE11 (Table 2 row SEQ ID NO 88) (designed binder) EVVAATPTSLLISWRHPHFPTRYYRITYGETGGNSPVQEFTVPLQPPTATISGLKPGVDYTITGYAVTMGKNDRELLTPISINYRT
4,4,A8 (designed binder) EVVAATPTSLLISWRHPHFPTRYYRITYGETGGNSPVQEFTVPLQPPTATISGLKPGVDYTITGYAVTDGLNGKYLFVPISINYRT
5,2,E15 (designed binder) EVVAATPTSLLISWRHPHFPTRYYRITYGETGGNSPVQEFTVPLQPPTATISGLKPGVDYTITGYAVTLEPNGRYLMVPISINYRT
6,1,F10 (designed binder) EVVAATPTSLLISWRHPHFPTRYYRITYGETGGNSPVQEFTVPLQPPTATISGLKPGVDYTITGYAVTMAPNGRELLTPISINYRT
7,3,E10 (designed binder) EVVAATPTSLLISWRHPHFPTRYYRITYGETGGNSPVQEFTVPLQPPTATISGLKPGVDYTITGYAVTEGRNGRELFIPISINYRT
8,1,E21 (designed binder) EVVAATPTSLLISWRHPHFPTRYYRITYGETGGNSPVQEFTVPLQPPTATISGLKPGVDYTITGYAVTWGYKDHELLIPISINYRT
9,1,E12 (designed binder) EVVAATPTSLLISWRHPHFPTRYYRITYGETGGNSPVQEFTVPLQPPTATISGLKPGVDYTITGYAVTFARDGHEILTPISINYRT
10,4,A10 (designed binder) EVVAATPTSLLISWRHPHFPTRYYRITYGETGGNSPVQEFTVPLQPPTATISGLKPGVDYTITGYAVTFGWNGRELLTPISINYRT
11,1,EGE10 (designed binder) EVVAATPTSLLISWRHPHFPTRYYRITYGETGGNSPVQEFTVPLQPPTATISGLKPGVDYTITGYAVTMGPNDRELLTPISINYRT
12,3,E22 (designed binder) EVVAATPTSLLISWRHPHFPTRYYRITYGETGGNSPVQEFTVPLQPPTATISGLKPGVDYTITGYAVTLGRNDRELLTPISINYRT
13,1,F12 (designed binder) EVVAATPTSLLISWRHPHFPTRYYRITYGETGGNSPVQEFTVPLQPPTATISGLKPGVDYTITGYAVTDGRNGHELMTPISINYRT
14,4,A9 (designed binder) EVVAATPTSLLISWRHPHFPTRYYRITYGETGGNSPVQEFTVPLQPPTATISGLKPGVDYTITGYAVTEGWNDRELFVPISINYRT
15,3,D11 (designed binder) EVVAATPTSLLISWRHPHFPTRYYRITYGETGGNSPVQEFTVPLQPPTATISGLKPGVDYTITGYAVTVERNGHKLFTPISINYRT
16,2,G1 (designed binder) EVVAATPTSLLISWRHPHFPTRYYRITYGETGGNSPVQEFTVPLQPPTATISGLKPGVDYTITGYAVTEGRNGRELMVPISINYRT
17,1,EGE9 (designed binder) EVVAATPTSLLISWRHPHFPTRYYRITYGETGGNSPVQEFTVPLQPPTATISGLKPGVDYTITGYAVTFGPNDRELLTPISINYRT
18,2,F1 (designed binder) EVVAATPTSLLISWRHPHFPTRYYRITYGETGGNSPVQEFTVPLQPPTATISGLKPGVDYTITGYAVTSGRNDRELLVPISINYRT
19,2,A7 (designed binder) EVVAATPTSLLISWRHPHFPTRYYRITYGETGGNSPVQEFTVPLQPPTATISGLKPGVDYTITGYAVTDGPNNRELIVPISINYRT
